The record followed here is PMC9125324, “MdJa2 Participates in the Brassinosteroid Signaling Pathway to Regulate the Synthesis of Anthocyanin and Proanthocyanidin in Red-Fleshed Apple”.

In series [1] the target is T1, MdJa2-His (Malus domestica? (red-fleshed apple), UniProt Q208U7 1-224). In words: competition; 50-200x excess vs labeled N5; EMSA (LightShift kit): 2.5% glycerol, 5 mM MgCl2, 10 mM EDTA, 50 mM KCl; room temperature, 30 min; pH not stated. The conditions noted are these: protein: recombinant; tags: His (pET32a); chain copies: 2; blunt. For orientation: In EMSA bound probe runs differently from free probe, usually more slowly.

Series [2] has as its target T1, MdJa2-His. Kind of series: EMSA; EMSA (LightShift kit): 2.5% glycerol, 5 mM MgCl2, 10 mM EDTA, 50 mM KCl; room temperature, 30 min; pH not stated. The note with it: protein: recombinant, tags: His (pET32a), chain copies: 2, blunt.
The target in series [3] is T1, MdJa2-His. Kind of series: competition; 50-200x excess vs labeled N3; EMSA (LightShift kit): 2.5% glycerol, 5 mM MgCl2, 10 mM EDTA, 50 mM KCl; room temperature, 30 min; pH not stated. The conditions noted are these: protein: recombinant; tags: His (pET32a); chain copies: 2; blunt.

T1 sequence (Q208U7 entry or part of it): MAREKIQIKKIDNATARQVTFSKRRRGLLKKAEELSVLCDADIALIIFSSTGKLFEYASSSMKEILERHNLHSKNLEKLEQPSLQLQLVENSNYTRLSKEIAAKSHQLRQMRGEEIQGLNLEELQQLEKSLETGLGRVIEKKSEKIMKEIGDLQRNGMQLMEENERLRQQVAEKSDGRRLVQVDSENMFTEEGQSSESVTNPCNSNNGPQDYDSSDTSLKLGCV

B1: MYB12-mutant probe (printed NYB12-mutant) (dsDNA)
DNA 1: AAATTCAGGAACCATTGCTACAACCAAGCATAACACAGT
DNA 2: ACTGTGTTATGCTTGGTTGTAGCAATGGTTCCTGAATTT
Regarding B1, in the series with MdJa2-His [1], the binding result is reported as “no binding”.

B2: MYB12 promoter probe (dsDNA)
DNA 1: AAATTCAGGAACCATTGCTACAATTAAGCATAACACAGT
DNA 2: ACTGTGTTATGCTTAATTGTAGCAATGGTTCCTGAATTT
With B2, in the series with MdJa2-His [2] (label: biotin (labeled probe)), the binding result was “binds”.

B3: ANS promoter probe (dsDNA)
DNA 1: GCAATTAAGTTTGTAAACCAATAATTAACTTAATTTTGAT
DNA 2: ATCAAAATTAAGTTAATTATTGGTTTACAAACTTAATTGC
Regarding B3, in the series with MdJa2-His [2] (label: biotin (labeled probe)), the binding result is listed as “binds”.

B4: ANS-mutant probe (dsDNA)
DNA 1: GCAACCAAGTTTGTAAACCAATAATTAACTTAATTTTGAT
DNA 2: ATCAAAATTAAGTTAATTATTGGTTTACAAACTTGGTTGC
On to B4, for which the binding result with MdJa2-His [2] is “no binding”.

B5: MYB9 promoter probe (dsDNA)
DNA 1: TAAATAGTAATAATATCATTTTTGTACATTCAGATAA
DNA 2: TTATCTGAATGTACAAAAATGATATTATTACTATTTA
For the molecule B5, the binding result in the series with MdJa2-His [2] (label: biotin (labeled probe)) is recorded as “binds”.

B6: MYB9-mutant probe (dsDNA)
DNA 1: TAAATAGTAATAATATCACCTTTGTACATTCAGATAA
DNA 2: TTATCTGAATGTACAAAGGTGATATTATTACTATTTA
As for B6, the binding result with MdJa2-His [3] is “no binding”.
